The source of these data is article PMC7589778 (Viruses, 2020).

The labels stand for the following.
B1: Human mitochondrial LysRS with a C-terminal HA-tag (enzyme)
chain: not shown
modifications: homodimer; mature mitochondrial form (19 specific + 576 shared residues); HA-tag left out

Holding throughout (assay): AlphaScreen or HTRF
What all share (details): both partners purified
A general note: Bead proximity is the source of the signal in Alpha formats.

The target in experiment [1] is T1, Full-length integrase from HIV-1 with a C-terminal His-tag (HIV-1).
T1 construct: source: E. coli BL21(DE3), purified (Ni-NTA, Mono S); not shown: His6, C-terminal, kept

Experiment [2] deals with Human mitochondrial LysRS with a C-terminal HA-tag (human, UniProt Q15046-2 1-625).
For experiment [3], the target named is B1.

A value given as a limit tells only on which side of the number the result lay.

Broadly, the Kd is the concentration at which binding is half-saturated. On to B1, for which the affinity in experiment [1], expressed as Kd, was 2.6 nM.

B2: HIV-1 integrase with a deletion of the NTD, C-terminal His-tag (domain or fragment)
chain: MHGQVDCSPGIWQLDCTHLEGKVILVAVHVASGYIEAEVIPAETGQETAYFLLKLAGRWPVKTVHTDNGSNFTSTTVKAACWWAGIKQEFGIPYNPQSQGVIESMNKELKKIIGQVRDQAEHLKTAVQMAVFIHNFKRKGGIGGYSAGERIVDIIATDIQTKELQKQITKIQNFRVYYRDSRDPVWKGPAKLLWKGEGAVVIQDNSDIKVVPRRKAKIIRDYGKQMAGDDCVASRQDED
modifications: homodimer; mature mitochondrial form (19 specific + 576 shared residues); HA-tag left out
The molecule B2 returned a Kd in experiment [2] of 3 nM.

B3: C-terminal domain of HIV-1 integrase starting at residue 213, C-terminal His-tag (domain or fragment)
chain: LQKQITKIQNFRVYYRDSRDPVWKGPAKLLWKGEGAVVIQDNSDIKVVPRRKAKIIRDYGKQMAGDDCVASRQDED
modifications: homodimer; mature mitochondrial form (19 specific + 576 shared residues); HA-tag left out
As for B3, the Kd in experiment [2] was found to be 190 nM.

B4: IN-CTD222 with a deletion of 15 C-terminal residues, C-terminal His-tag (domain or fragment)
chain: NFRVYYRDSRDPVWKGPAKLLWKGEGAVVIQDNSDIKVVPRRKAKIIRDYGK
notes: source: E. coli BL21(DE3), purified (Ni-NTA, Mono S); not shown: His6, C-terminal, kept
Take B4: the Kd in experiment [3] was 142 nM.

B5: HIV-1 integrase catalytic core domain (deletion of the NTD and the CTD), C-terminal His-tag (domain or fragment)
chain: MHGQVDCSPGIWQLDCTHLEGKVILVAVHVASGYIEAEVIPAETGQETAYFLLKLAGRWPVKTVHTDNGSNFTSTTVKAACWWAGIKQEFGIPYNPQSQGVIESMNKELKKIIGQVRDQAEHLKTAVQMAVFIHNFKRKGGIGGYSAGERIVDIIATDIQTKE
modifications: homodimer; mature mitochondrial form (19 specific + 576 shared residues); HA-tag left out
In the case of B5, the Kd in experiment [2] was more than 400 nM.
